Laboratory results reported in paper PMC5431903, “Genomic RNA folding mediates assembly of human parechovirus” (Nature Communications, 2017).

Target: the molecule itself
Test: not stated; purified HPeV1 virions heated to 56 °C for 30 min, then 4 °C for 10 days (1x selection buffer: 10 mM Tris-HCl pH 7.7, 150 mM NaCl, 1 mM MgCl2); whole capsids removed by centrifugation; how the pentamers were shown is in Supplementary Fig. 1

B1: HPeV1 (Harris strain) capsid protein protomer of VP0, VP1 and VP3 (complex)
chain 1: METIKSIADMATGVVSSVDSTINAVNEKVESVGNEIGGNLLTKVADDASNILGPNCFATTAEPENKNVVQATTTVNTTNLTQHPSAPTMPFSPDFSNVDNFHSMAYDITTGDKNPSKLVRLETHEWTPSWARGYQITHVELPKVFWDHQDKPAYGQSRYFAAVRCGFHFQVQVNVNQGTAGSALVVYEPKPVVTYDSKLEFGAFTNLPHVLMNLAETTQADLCIPYVADTNYVKTDSSDLGQLKVYVWTPLSIPTGSANQVDVTILGSLLQLDFQNPRVFAQDVNIYDN
chain 2: NSWGSQMDLTDPLCIEDDTENCKQTMSPNELGLTSAQDDGPLGQEKPNYFLNFRSMNVDIFTVSHTKVDNLFGRAWFFMEHTFTNEGQWRVPLEFPKQGHGSLSLLFAYFTGELNIHVLFLSERGFLRVAHTYDTSNDRVNFLSSNGVITVPAGEQMTLSAPYYSNKPLRTVRDNNSLGYLMCKPFLTGTSTGKIEVYLSLRCPNFFFPLPAPKVTSSRALRGDMANLTNQ
chain 3: APNGKKKNWKKIMTMSTKYKWTRTKIDIAEGPGSMNMANVLCTTGAQSVALVGERAFYDPRTAGSKSRFDDLVKIAQLFSVMADSTTPSENHGVDAKGYFKWSATTAPQSIVHRNIVYLRLFPNLNVFVNSYSYFRGSLVLRLSVYASTFNRGRLRMGFFPNATTDSTSTLDNAIYTICDIGSDNSFEITIPYSFSTWMRKTNGHPIGLFQIEVLNRLTYNSSSPSEVYCIVQGKMGQDARFFCPTGSVVTFQ
notes: capsid protein VP0 of human parechovirus 1, Harris strain; cut product of the viral polyprotein, not cleaved into VP2 and VP4; capsid protein VP1 of human parechovirus 1, Harris strain; cut product of the viral polyprotein; capsid protein VP3 of human parechovirus 1, Harris strain; One protomer holds one copy each of VP0, VP1 and VP3; five protomers form the pentameric capsomer, and the capsid is …
Q: With B1 as the protein, how does the “stoichiometry N” value read?
A: Its value is 5.
